Laboratory results reported in PMC12532034 (Cancer immunology research, 2025).

Biological target: T1, GST-Rb 379–928 (UniProt P06400 379-928)
T1 sequence (looked up): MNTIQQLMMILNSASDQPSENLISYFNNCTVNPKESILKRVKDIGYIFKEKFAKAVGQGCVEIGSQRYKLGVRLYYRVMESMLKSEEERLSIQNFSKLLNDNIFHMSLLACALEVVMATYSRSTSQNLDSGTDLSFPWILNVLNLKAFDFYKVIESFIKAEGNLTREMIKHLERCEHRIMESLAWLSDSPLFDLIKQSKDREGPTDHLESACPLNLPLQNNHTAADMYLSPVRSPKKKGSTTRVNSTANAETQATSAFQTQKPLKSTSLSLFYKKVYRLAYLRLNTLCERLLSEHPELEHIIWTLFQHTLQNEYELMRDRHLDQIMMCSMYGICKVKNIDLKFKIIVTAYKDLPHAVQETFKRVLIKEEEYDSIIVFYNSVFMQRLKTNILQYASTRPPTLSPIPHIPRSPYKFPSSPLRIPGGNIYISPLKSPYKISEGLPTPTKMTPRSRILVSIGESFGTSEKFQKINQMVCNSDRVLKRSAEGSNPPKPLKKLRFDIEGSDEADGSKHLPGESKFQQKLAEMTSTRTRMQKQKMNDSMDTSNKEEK
Assay: AlphaScreen or HTRF

binding result: binds
B1: MBP-E2F1 (natural protein)
chain: not shown
